The labels stand for the following.
B1: anti-human PD-L1 nanobody h_Nb12 (Fc fusion)
chain: DVQLQESGGGLVQAGGSLRLSCAASGRTFSSRAMGWFRQAPGKEREFVAAISGSGRNTYYADSVKGRFTISRDNAKNSVNLQMNSLKPEDTAVYYCNAAGGGITIATMTQRTQYDYWGQGTQVTVSS
notes: not shown: Fc of human IgG1 from vector pFUSE-hIgG1-Fc
B2: anti-human PD-L1 nanobody h_Nb9 (Fc fusion)
chain: DVQLQESGGGLVQPGGSLRLSCASSGSIFGLGVKGWYRQPPGNQREMVAQIISGGRISYADSVKGRFTISRDNAKNTVYLQMNSLKPEDTAVYYCNAWGPGQRNYWGRGTQVTVSS
notes: as for B1
B3: anti-human PD-L1 nanobody h_Nb6 (Fc fusion)
chain: DVQLQESGGGLAQPGGSLRLSCAASGFTFSSYAMSWARQAPGKGLEWVAGIYRGGSDTYYADSVKGRFTISRDNTKNTLYLQMNSLKPEDTALYYCIQGWGLGYANYDYWGQGTQVTVSS
notes: as for B1
B4: anti-human PD-L1 nanobody h_Nb5 (Fc fusion)
chain: DVQLQESGGGAVQSGESLRLSCAASGRDLMFYDVAWFRQAPGKEREGVSYIRSSGTLTKYADSVKGRFTISRDNDKNTVSLQMNSLNPEDTAKYYCAARLQSATSHSDLREDEFNSWGQGTQVTVSS
notes: as for B1
B5: h_Nb1_G99R (VHH)
VHH: DVQLQESGGGLVQPGGSLRLSCAASGFTFSSYAMSWVRQAPGKGLEWVSDINSGGDNTDYADSVKGRFTISRDNAKNTLYLQMNSLKPEDTAVYYCARRPKLCFSSWGQGTQVTVSS
notes: also called 103
B6: h_Nb1_G99W (VHH)
VHH: DVQLQESGGGLVQPGGSLRLSCAASGFTFSSYAMSWVRQAPGKGLEWVSDINSGGDNTDYADSVKGRFTISRDNAKNTLYLQMNSLKPEDTAVYYCARWPKLCFSSWGQGTQVTVSS
notes: also called 105
B7: h_Nb1_A61K (VHH)
VHH: DVQLQESGGGLVQPGGSLRLSCAASGFTFSSYAMSWVRQAPGKGLEWVSDINSGGDNTDYKDSVKGRFTISRDNAKNTLYLQMNSLKPEDTAVYYCARGPKLCFSSWGQGTQVTVSS
notes: also called 94
B8: h_Nb1_D62Y (VHH)
VHH: DVQLQESGGGLVQPGGSLRLSCAASGFTFSSYAMSWVRQAPGKGLEWVSDINSGGDNTDYAYSVKGRFTISRDNAKNTLYLQMNSLKPEDTAVYYCARGPKLCFSSWGQGTQVTVSS
notes: also called 99
B9: h_Nb1_D59R (VHH)
VHH: DVQLQESGGGLVQPGGSLRLSCAASGFTFSSYAMSWVRQAPGKGLEWVSDINSGGDNTRYADSVKGRFTISRDNAKNTLYLQMNSLKPEDTAVYYCARGPKLCFSSWGQGTQVTVSS
notes: also called 95
B10: h_Nb1_C103M (VHH)
VHH: DVQLQESGGGLVQPGGSLRLSCAASGFTFSSYAMSWVRQAPGKGLEWVSDINSGGDNTDYADSVKGRFTISRDNAKNTLYLQMNSLKPEDTAVYYCARGPKLMFSSWGQGTQVTVSS
B11: h_Nb1_C103W (VHH)
VHH: DVQLQESGGGLVQPGGSLRLSCAASGFTFSSYAMSWVRQAPGKGLEWVSDINSGGDNTDYADSVKGRFTISRDNAKNTLYLQMNSLKPEDTAVYYCARGPKLWFSSWGQGTQVTVSS
B12: h_Nb1_A61N (VHH)
VHH: DVQLQESGGGLVQPGGSLRLSCAASGFTFSSYAMSWVRQAPGKGLEWVSDINSGGDNTDYNDSVKGRFTISRDNAKNTLYLQMNSLKPEDTAVYYCARGPKLCFSSWGQGTQVTVSS
notes: also called 92
B13: h_Nb1_A61Q (VHH)
VHH: DVQLQESGGGLVQPGGSLRLSCAASGFTFSSYAMSWVRQAPGKGLEWVSDINSGGDNTDYQDSVKGRFTISRDNAKNTLYLQMNSLKPEDTAVYYCARGPKLCFSSWGQGTQVTVSS
notes: also called 93
B14: h_Nb1_D59M (VHH)
VHH: DVQLQESGGGLVQPGGSLRLSCAASGFTFSSYAMSWVRQAPGKGLEWVSDINSGGDNTMYADSVKGRFTISRDNAKNTLYLQMNSLKPEDTAVYYCARGPKLCFSSWGQGTQVTVSS
notes: also called 96
B15: h_Nb1_D62W (VHH)
VHH: DVQLQESGGGLVQPGGSLRLSCAASGFTFSSYAMSWVRQAPGKGLEWVSDINSGGDNTDYAWSVKGRFTISRDNAKNTLYLQMNSLKPEDTAVYYCARGPKLCFSSWGQGTQVTVSS
notes: also called 98
B16: h_Nb1_D59F (VHH)
VHH: DVQLQESGGGLVQPGGSLRLSCAASGFTFSSYAMSWVRQAPGKGLEWVSDINSGGDNTFYADSVKGRFTISRDNAKNTLYLQMNSLKPEDTAVYYCARGPKLCFSSWGQGTQVTVSS
notes: also called 97
B17: h_Nb1_G99Y (VHH)
VHH: DVQLQESGGGLVQPGGSLRLSCAASGFTFSSYAMSWVRQAPGKGLEWVSDINSGGDNTDYADSVKGRFTISRDNAKNTLYLQMNSLKPEDTAVYYCARYPKLCFSSWGQGTQVTVSS
notes: also called 106
B18: h_Nb1_C103K (VHH)
VHH: DVQLQESGGGLVQPGGSLRLSCAASGFTFSSYAMSWVRQAPGKGLEWVSDINSGGDNTDYADSVKGRFTISRDNAKNTLYLQMNSLKPEDTAVYYCARGPKLKFSSWGQGTQVTVSS
notes: also called 100
B19: h_Nb1_G99Q (VHH)
VHH: DVQLQESGGGLVQPGGSLRLSCAASGFTFSSYAMSWVRQAPGKGLEWVSDINSGGDNTDYADSVKGRFTISRDNAKNTLYLQMNSLKPEDTAVYYCARQPKLCFSSWGQGTQVTVSS
notes: also called 104
B20: h_Nb2_G30R (VHH)
VHH: DVQLQESGGGLVQPGGSLRLSCAASGFTFRDRWMYWLRQAPGKGLEWVSSINPAGRSTYYADSVKGRFTISRDNAKNTLYLQMNSLKSEDTAVYYCTKDPGGYQKGQGTQVTVSS
notes: also called 107
B21: h_Nb2_G101W (VHH)
VHH: DVQLQESGGGLVQPGGSLRLSCAASGFTFGDRWMYWLRQAPGKGLEWVSSINPAGRSTYYADSVKGRFTISRDNAKNTLYLQMNSLKSEDTAVYYCTKDPWGYQKGQGTQVTVSS
notes: also called 111
B22: h_Nb2_G101R (VHH)
VHH: DVQLQESGGGLVQPGGSLRLSCAASGFTFGDRWMYWLRQAPGKGLEWVSSINPAGRSTYYADSVKGRFTISRDNAKNTLYLQMNSLKSEDTAVYYCTKDPRGYQKGQGTQVTVSS
notes: also called 110
B23: h_Nb2_P100E (VHH)
VHH: DVQLQESGGGLVQPGGSLRLSCAASGFTFGDRWMYWLRQAPGKGLEWVSSINPAGRSTYYADSVKGRFTISRDNAKNTLYLQMNSLKSEDTAVYYCTKDEGGYQKGQGTQVTVSS
B24: h_Nb2_P100R (VHH)
VHH: DVQLQESGGGLVQPGGSLRLSCAASGFTFGDRWMYWLRQAPGKGLEWVSSINPAGRSTYYADSVKGRFTISRDNAKNTLYLQMNSLKSEDTAVYYCTKDRGGYQKGQGTQVTVSS
notes: also called 115
B25: h_Nb2_P100Q (VHH)
VHH: DVQLQESGGGLVQPGGSLRLSCAASGFTFGDRWMYWLRQAPGKGLEWVSSINPAGRSTYYADSVKGRFTISRDNAKNTLYLQMNSLKSEDTAVYYCTKDQGGYQKGQGTQVTVSS
notes: also called 116
B26: h_Nb2_F29W (VHH)
VHH: DVQLQESGGGLVQPGGSLRLSCAASGFTWGDRWMYWLRQAPGKGLEWVSSINPAGRSTYYADSVKGRFTISRDNAKNTLYLQMNSLKSEDTAVYYCTKDPGGYQKGQGTQVTVSS
notes: also called 114
B27: h_Nb2_F29R (VHH)
VHH: DVQLQESGGGLVQPGGSLRLSCAASGFTRGDRWMYWLRQAPGKGLEWVSSINPAGRSTYYADSVKGRFTISRDNAKNTLYLQMNSLKSEDTAVYYCTKDPGGYQKGQGTQVTVSS
notes: also called 113
B28: h_Nb2_G30F (VHH)
VHH: DVQLQESGGGLVQPGGSLRLSCAASGFTFFDRWMYWLRQAPGKGLEWVSSINPAGRSTYYADSVKGRFTISRDNAKNTLYLQMNSLKSEDTAVYYCTKDPGGYQKGQGTQVTVSS
notes: also called 108
B29: h_Nb2_G30W (VHH)
VHH: DVQLQESGGGLVQPGGSLRLSCAASGFTFWDRWMYWLRQAPGKGLEWVSSINPAGRSTYYADSVKGRFTISRDNAKNTLYLQMNSLKSEDTAVYYCTKDPGGYQKGQGTQVTVSS
notes: also called 109

For one assay, the target named is T1, human PD-L1 on cell strain HEK293T/hPD-L1 (human, UniProt Q9NZQ7 19-290).
T1 construct: whole, on cells
T1 sequence (Q9NZQ7 19-290): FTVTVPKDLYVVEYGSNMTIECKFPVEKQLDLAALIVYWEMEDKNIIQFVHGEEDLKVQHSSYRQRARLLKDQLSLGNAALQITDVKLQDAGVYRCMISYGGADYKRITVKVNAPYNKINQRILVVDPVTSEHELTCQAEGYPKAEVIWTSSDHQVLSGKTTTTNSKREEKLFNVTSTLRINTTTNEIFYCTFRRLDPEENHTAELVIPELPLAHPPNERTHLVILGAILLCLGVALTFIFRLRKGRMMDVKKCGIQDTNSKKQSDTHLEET
The assay is described as follows: flow cytometry on HEK293T/hPD-L1, 10 µg/mL, anti-human IgG Fc (FITC). As to the method:
The cell strain HEK293T/hPD-L1 was digested, and centrifugationwas performed to remove the supernatant; the cells were washed one time with PBS and the cell density was adjusted to 2.5×10⁶ cells/mL; each cell sample was added to a 100 μL cell suspension, that is, a 2.5×10⁵ cell/sample was comprised; different anti-human PD-L1 candidate nanobodies (the concentration is 10 μg/mL) were respectively added to the samples; incubating for 20 min at 4° C.; centrifuging, removing supernatant, and the cells were washing once with PBS; using diluted antibody anti-human IgG Fc (FITC) as secondary antibody, and the cells were re-suspended; incubating at 4° C. for 20 min; centrifuging, removing supernatant, the cells were washing twice with PBS, and transferred to a flow tube; and was performed on-machine detection by using a flow cytometer to obtain the binding activity of the candidate nanobody and human PD-L1, as shown in FIG. 13.
On the technique in general: In flow cytometry, cells or beads pass a laser one at a time.
Regarding B1, the binding result is on record as “binds”.

With B2, the binding result is on record as “binds”.

For B3, the binding result is “binds”.

On to B4, for which the binding result is “binds”.

The target in the next assay is T2, PD-L1 (human PD-L1 protein of the ELISA of Example 16) (human, UniProt Q9NZQ7 19-238, limits assumed). The assay is described as follows: ELISA; affinity relative to original antibody h_Nb1 VHH (SEQ ID NO.21). Background: In an ELISA, binding on a coated surface is turned into a signal by an enzyme label.
T2 sequence (Q9NZQ7 19-238 limits assumed): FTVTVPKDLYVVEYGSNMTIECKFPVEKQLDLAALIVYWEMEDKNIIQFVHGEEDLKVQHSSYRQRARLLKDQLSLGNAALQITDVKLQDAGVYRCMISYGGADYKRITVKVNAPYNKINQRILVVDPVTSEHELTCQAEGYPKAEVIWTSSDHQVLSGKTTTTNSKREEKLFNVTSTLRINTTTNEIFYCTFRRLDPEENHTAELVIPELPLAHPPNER
B5 returned an Increased relative affinity of 12.1 relative.

In turn, B6 displayed an Increased relative affinity of 6.16 relative.

The molecule B7 registered an Increased relative affinity of 4.12 relative.

On to B8, for which the Increased relative affinity stood at 5.8 relative.

In the case of B9, the Increased relative affinity is 4.28 relative.

In turn, B10 gave an Increased relative affinity of 3.38 relative.

Regarding B11, the Increased relative affinity came to 3.83 relative.

Consider B12, for which the Increased relative affinity stood at 5.13 relative.

In turn, B13 registered an Increased relative affinity of 4.66 relative.

Regarding B14, the Increased relative affinity was 4.9 relative.

The molecule B15 yielded an Increased relative affinity of 11.7 relative.

B16 gave an Increased relative affinity of 5.12 relative.

Molecule B17 gave an Increased relative affinity of 7.02 relative.

Turning to B18, the Increased relative affinity worked out at 3.31 relative.

As to B19, the Increased relative affinity amounted to 6.16 relative.

For the next assay, the target named is T2, PD-L1 (human PD-L1 protein of the ELISA …). The assay is described as follows: ELISA; affinity relative to original antibody h_Nb2 VHH (SEQ ID NO.25).
Regarding B20, the Increased relative affinity was determined as 6.23 relative.

Regarding B21, the Increased relative affinity amounted to 5.92 relative.

With B22, the Increased relative affinity came out at 6.5 relative.

B23 had an Increased relative affinity of 3.98 relative.

B24 yielded an Increased relative affinity of 7.21 relative.

For B25, the Increased relative affinity came to 3.41 relative.

In turn, B26 came in with an Increased relative affinity of 1.44 relative.

As to B27, the Increased relative affinity stood at 1.46 relative.

On to B28, for which the Increased relative affinity came to 5.11 relative.

B29 returned an Increased relative affinity of 10 relative.

For the origin of these results see patent US20240189443A1, “PD-L1 AND TLR7 DOUBLE-TARGETING NANOBODY COUPLING DRUG AND USE THEREOF IN ANTI-TUMOR” (SHANGHAI INSTITUTE OF MATERIA MEDICA, CHINESE ACADEMY OF …, priority 2021, published 2024).
